This is an account of results in article PMC10279719 (Nature Communications, 2023).

In test [1] the target is T1, CrkII^SH2 (Homo sapiens, UniProt P46108).
T1 construct: CrkII^SH2; UniProt P46108-1, residues 6–120; 8-His tag with TEV protease cleavage site (N); made in house; host or cells: E. coli C41 (DE3)
Kind of test: SPR, CrkII SH2 binding to immobilised PEAK proteins. Particulars: interactor as analyte over biotinylated PEAK protein (biotin CAPture); Biacore 8K+, HBS-TP with 500 mM NaCl, 20 °C; steady-state fit; mean ± S.E.M. (N = 3). On the procedure: (§1) SPR binding studies of PEAK PRM peptides to CrkII^NSH3 were performed using a Biacore S200 Instrument (Cytiva). Purified CrkII^NSH3 was diluted to 5 µg ml^−1 in 10 mM sodium acetate pH 4.0 and amine coupled at 25 °C to a Series S CM5 sensor chip, in HBS-N running buffer (20 mM HEPES pH 7.4, 150 mM NaCl) to a final immobilization level of 1100–1400 response units (RU), followed by surface deactivation using 1 M ethanolamine. A blank activation/deactivation was used for the reference surface. Peptide binding studies were performed at 20 °C in HBS-TP running buffer (20 mM HEPES pH 7.4, 150 mM NaCl, 1 mM TCEP, 0.005% (v/v) Tween-P20). […] Peptide stocks were further diluted to in running buffer to 10 or 20 µM and prepared as a 11-point concentration series (2-fold serial dilution, […] for PEAK PRM peptides, or 20 µM–20 nM for PEAK tandem motif peptides). Samples were injected in a multi-cycle run (flow rate 30 µl min^−1, contact time of 60 s, dissociation 120 s) without regeneration. Sensorgrams were double referenced, and steady-state binding data fitted using a 1:1 binding model using Biacore S200 Evaluation Software (Cytiva, v. 1.1).
(§2) SPR binding studies of PEAK proteins to full length CrkII/Grb2 and sub-domains were performed using a Biacore 8K+ Instrument (Cytiva) and analyzed using Biacore Insight Evaluation Software (v. 3.0.12.15655). […]
(SPR reads the build-up and loss of mass on a sensor chip optically.)

Test [2] deals with 14-3-3ɣ. The test is described as follows: SPR, 14-3-3ɣ binding to immobilised PEAK proteins. More on the design: species or system human. The conditions noted are these: 14-3-3ɣ analyte 0.46–1000 nM, multi-cycle, over immobilised biotinylated PEAK protein; Biacore 8K+, 20 °C; KD only an estimate (bivalent analyte model); N = 3. The method, then:
PEAK proteins and adapters proteins (full length or individual domains) were biotinylated using EZ-Link™ NHS-PEG4-Biotin (Thermo Fisher) at a 1:1 molar ratio (100 µM) for 1 h at room temperature, then excess biotin was removed by buffer exchange using a Zeba™ Spin Desalting Column (Thermo Fisher) into HBS-T buffer (20 mM HEPES pH 7.4, 150 mM NaCl, 1 mM TCEP).
SPR binding studies of PEAK proteins to full length CrkII/Grb2 and sub-domains were performed using a Biacore 8K+ Instrument (Cytiva) and analyzed using Biacore Insight Evaluation Software (v. 3.0.12.15655). […] Biotinylated PEAK proteins (with or without Src phosphorylation; 500 nM in HBS-TP) were immobilized using a biotin CAPture kit (Cytiva) in HBS-TP running buffer at 20 °C. Binding studies and steady-state data analysis were performed as described for CrkII^NSH3 with the inclusion of an additional surface regeneration step (60 s injection of 1 M NaCl) between cycles. For Grb2^FL, Grb2^SH2, CrkII^SH2, CrkII^FL monomer and CrkII^FL dimer, to reduce nonspecific interactions the HBS-TP running buffer was supplemented with additional NaCl to a final concentration of 500 mM.
Binding studies for 14-3-3ɣ were undertaken in the same way in multi cycle mode (8 point, 3-fold serial dilution series, 0.46–1000 nM, 60 s contact time, 300 s dissociation).

In test [3] the target is T2, CrkII^FL monomer (Homo sapiens, UniProt P46108).
T2 construct: full length CrkII (CrkII^FL; UniProt P46108-1, residues 1–330); 8-His tag with TEV protease cleavage site (N); made in house; host or cells: E. coli C41 (DE3)
Kind of test: SPR, CrkII FL monomer binding to immobilised PEAK proteins. Particulars: interactor as analyte over biotinylated PEAK protein (biotin CAPture); Biacore 8K+, HBS-TP with 500 mM NaCl, 20 °C; steady-state fit; mean ± SD (N = 2). On the procedure:
as §1
(§3) SPR binding studies of PEAK proteins to full length CrkII/Grb2 and sub-domains were performed using a Biacore 8K+ Instrument (Cytiva) and analyzed using Biacore Insight Evaluation Software (v. 3.0.12.15655). […] Binding studies and steady-state data analysis were performed as described for CrkII^NSH3 with the inclusion of an additional surface regeneration step (60 s injection of 1 M NaCl) between cycles.

Test [4] concerns the target T3, CrkII^NSH3 (Homo sapiens, UniProt P46108).
T3 construct: CrkII^NSH3; UniProt P46108-1, residues 134–191; 8-His tag with TEV protease cleavage site (N); made in house; host or cells: E. coli C41 (DE3)
Kind of test: SPR, CrkII NSH3 binding to immobilised PEAK proteins. Particulars: read-out: CrkII NSH3 SPR KD; interactor as analyte over biotinylated PEAK protein captured with biotin CAPture kit; Biacore 8K+, HBS-TP, 20 °C; steady-state fit; mean ± SD (N = 2); read-out: CrkII-SH2 SPR KD. The method, then:
as §1, §3

Test [5] addresses T4, CrkII^FL dimer (Homo sapiens, UniProt P46108).
T4 construct: full length CrkII (CrkII^FL; UniProt P46108-1, residues 1–330); 8-His tag with TEV protease cleavage site (N); made in house; host or cells: E. coli C41 (DE3)
The test is described as follows: SPR, CrkII FL dimer binding to immobilised PEAK proteins. Particulars: interactor as analyte over biotinylated PEAK protein (biotin CAPture); Biacore 8K+, HBS-TP with 500 mM NaCl, 20 °C; steady-state fit; mean ± SD (N = 2). On the procedure: as §1, §3

Test [6] deals with T5, Grb2^FL (Homo sapiens, UniProt P62993).
T5 construct: Grb2^FL; UniProt P62993-1, residues 1–217; 8-His tag with TEV protease cleavage site (N); made in house; host or cells: E. coli C41 (DE3)
The test is described as follows: SPR, Grb2 FL binding to immobilised PEAK proteins. The conditions noted are these: interactor as analyte over biotinylated PEAK protein (biotin CAPture); Biacore 8K+, HBS-TP with 500 mM NaCl, 20 °C; steady-state fit; mean ± SD (N = 2) or S.E.M. (N = 3). On the procedure:
as §1, §2

Test [7] deals with Grb2^SH2 (Homo sapiens, UniProt P62993). Kind of test: SPR, Grb2 SH2 binding to immobilised PEAK proteins. Particulars: interactor as analyte over biotinylated PEAK protein (biotin CAPture); Biacore 8K+, HBS-TP with 500 mM NaCl, 20 °C; steady-state fit; mean ± S.E.M. (N = 3). The method, then:
as §1, §2

T2 sequence (P46108 whole entry, the tested form may be a part): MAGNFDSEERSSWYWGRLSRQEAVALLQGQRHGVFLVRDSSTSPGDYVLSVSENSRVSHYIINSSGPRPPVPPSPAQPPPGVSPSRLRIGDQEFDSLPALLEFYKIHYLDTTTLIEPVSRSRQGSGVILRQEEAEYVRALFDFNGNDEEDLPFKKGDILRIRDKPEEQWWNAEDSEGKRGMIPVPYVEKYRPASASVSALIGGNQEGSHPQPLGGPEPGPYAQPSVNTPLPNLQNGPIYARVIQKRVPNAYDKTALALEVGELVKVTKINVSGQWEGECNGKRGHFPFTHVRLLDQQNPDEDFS
T4 sequence (P46108 whole entry, the tested form may be a part): as above
T3 sequence (P46108 134-191): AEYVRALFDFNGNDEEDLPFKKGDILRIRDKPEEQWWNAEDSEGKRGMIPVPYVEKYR
T1 sequence (P46108 6-120): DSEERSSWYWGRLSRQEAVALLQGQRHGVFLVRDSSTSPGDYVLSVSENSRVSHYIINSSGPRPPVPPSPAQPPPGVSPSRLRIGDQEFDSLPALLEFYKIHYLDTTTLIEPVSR
T5 sequence (P62993 whole entry, the tested form may be a part): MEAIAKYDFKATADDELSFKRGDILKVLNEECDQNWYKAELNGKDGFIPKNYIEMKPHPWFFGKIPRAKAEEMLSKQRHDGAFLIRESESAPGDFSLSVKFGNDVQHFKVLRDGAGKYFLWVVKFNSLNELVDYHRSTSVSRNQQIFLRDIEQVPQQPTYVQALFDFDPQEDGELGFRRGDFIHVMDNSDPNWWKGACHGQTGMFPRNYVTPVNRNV
Sequence of Grb2^SH2 (P62993 60-152 limits assumed): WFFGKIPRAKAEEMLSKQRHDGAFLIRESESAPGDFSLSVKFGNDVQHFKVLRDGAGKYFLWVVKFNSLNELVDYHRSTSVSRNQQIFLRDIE

B1: PEAK2-IDR1: recombinant human PEAK2 residues 802–1406, insect cell expressed (protein)
chain: EDVSPSGPQQPPPLPQKKIVSRAASSPDGFFWTQGSPKPGTASPKLNLSHSETNVHDESHFSYSLSPGNRHHPVFSSSDPLEKAFKGSGHWLPAAGLAGNRGGCGSPGLQCKGAPSASSSQLSVSSQASTGSTQLQLHGLLSNISSKEGTYAKLGGLYTQSLARLVAKCEDLFMGGQKKELHFNENNWSLFKLTCNKPCCDSGDAIYYCATCSEDPGSTYAVKICKAPEPKTVSYCSPSVPVHFNIQQDCGHFVASVPSSMLSSPDAPKDPVPALPTHPPAQEQDCVVVITREVPHQTASDFVRDSAASHQAEPEAYERRVCFLLLQLCNGLEHLKEHGIIHRDLCLENLLLVHCTLQAGPGPAPAPAPAPAPAAAAPPCSSAAPPAGGTLSPAAGPASPEGPREKQLPRLIISNFLKAKQKPGGTPNLQQKKSQARLAPEIVSASQYRKFDEFQTGILIYELLHQPNPFEVRAQLRERDYRQEDLPPLPALSLYSPGLQQLAHLLLEADPIKRIRIGEAKRVLQCLLWGPRRELVQQPGTSEEALCGTLHNWIDMKRALMMMKFAEKAVDRRRGVELEDWLCCQYLASAEPGALLQSLKLLQLL
modifications: phosphorylated at the tandem site 14-3-3 motif (RAASSP) by LC MS/MS; left off: His tag, N-terminal, state not stated
notes: recombinant human PEAK2 residues 802–1406, insect cell expressed
For B1, the “SPR KD, CrkII-SH2” value in test [1] was “No binding”. For the same molecule, the “SPR KD, 14-3-3ɣ” value in test [2] is recorded as “No binding”. The Kd in test [3] stood at 13.7 µM; in test [4], 4.79 µM; in test [5], 4.22 µM.

B2: PEAK2-IDR1 (+ Src phosphorylation): PEAK2 residues 802–1406 phosphorylated with recombinant Src kinase (protein)
chain: EDVSPSGPQQPPPLPQKKIVSRAASSPDGFFWTQGSPKPGTASPKLNLSHSETNVHDESHFSYSLSPGNRHHPVFSSSDPLEKAFKGSGHWLPAAGLAGNRGGCGSPGLQCKGAPSASSSQLSVSSQASTGSTQLQLHGLLSNISSKEGTYAKLGGLYTQSLARLVAKCEDLFMGGQKKELHFNENNWSLFKLTCNKPCCDSGDAIYYCATCSEDPGSTYAVKICKAPEPKTVSYCSPSVPVHFNIQQDCGHFVASVPSSMLSSPDAPKDPVPALPTHPPAQEQDCVVVITREVPHQTASDFVRDSAASHQAEPEAYERRVCFLLLQLCNGLEHLKEHGIIHRDLCLENLLLVHCTLQAGPGPAPAPAPAPAPAAAAPPCSSAAPPAGGTLSPAAGPASPEGPREKQLPRLIISNFLKAKQKPGGTPNLQQKKSQARLAPEIVSASQYRKFDEFQTGILIYELLHQPNPFEVRAQLRERDYRQEDLPPLPALSLYSPGLQQLAHLLLEADPIKRIRIGEAKRVLQCLLWGPRRELVQQPGTSEEALCGTLHNWIDMKRALMMMKFAEKAVDRRRGVELEDWLCCQYLASAEPGALLQSLKLLQLL
modifications: phosphorylated with Src kinase, sites not stated; phosphorylation of the tandem site 14-3-3 motif (RAASSP) found by proteomic analysis; biotin (EZ-Link NHS-PEG4-Biotin, 1:1 molar ratio); left off: His
notes: PEAK2 residues 802–1406 phosphorylated with recombinant Src kinase
Turning to B2, the “SPR KD, 14-3-3ɣ” value in test [2] is “No binding”. In addition, the Kd was found to be 2.12 µM in test [3], 5.2 µM in test [4] and 1.38 µM in test [5].

B3: PEAK1-IDR1: recombinant human PEAK1 residues 1082–1746, insect cell expressed (protein)
chain: LPELEREDGKEDISDPMDPNPCSATYSNLGQSRAAMIPPKQPRQPKGAVDDAIAFGGKTDQEAPNASQPTPPPLPKKMIIRANTEPISKDLQKSMESSLCVMANPTYDIDPNWDASSAGSSISYELKGLDIESYDSLERPLRKERPVPSAANSISSLTTLSIKDRFSNSMESLSSRRGPSCRQGRGIQKPQRQALYRGLENREEVVGKIRSLHTDALKKLAVKCEDLFMAGQKDQLRFGVDSWSDFRLTSDKPCCEAGDAVYYTASYAKDPLNNYAVKICKSKAKESQQYYHSLAVRQSLAVHFNIQQDCGHFLAEVPNRLLPWEDPDDPEKDEDDMEETEEDAKGETDGKNPKPCSEAASSQKENQGVMSKKQRSHVVVITREVPCLTVADFVRDSLAQHGKSPDLYERQVCLLLLQLCSGLEHLKPYHVTHCDLRLENLLLVHYQPGGTAQGFGPAEPSPTSSYPTRLIVSNFSQAKQKSHLVDPEILRDQSRLAPEIITATQYKKCDEFQTGILIYEMLHLPNPFDENPELKEREYTRADLPRIPFRSPYSRGLQQLASCLLNPNPSERILISDAKGILQCLLWGPREDLFQTFTACPSLVQRNTLLQNWLDIKRTLLMIKFAEKSLDREGGISLEDWLCAQYLAFATTDSLSCIVKILQHR
modifications: left off: His tag, N-terminal, state not stated
notes: recombinant human PEAK1 residues 1082–1746, insect cell expressed
Turning to B3, the “SPR KD, CrkII-SH2” value in test [1] is recorded as “No binding”. The “SPR KD, 14-3-3ɣ” value in test [2] is on record as “No binding”. Further, the dissociation constant (Kd) in test [6] is above 50 µM; in test [3], 9.2 µM; in test [4] it was 3.7 µM; in test [5], 2.03 µM. Moreover, the “SPR KD, Grb2 SH2” value in test [7] is recorded as “No binding”.

B4: PEAK1-IDR1 (+ Src phosphorylation): PEAK1 residues 1082–1746 phosphorylated with recombinant Src kinase (protein)
chain: LPELEREDGKEDISDPMDPNPCSATYSNLGQSRAAMIPPKQPRQPKGAVDDAIAFGGKTDQEAPNASQPTPPPLPKKMIIRANTEPISKDLQKSMESSLCVMANPTYDIDPNWDASSAGSSISYELKGLDIESYDSLERPLRKERPVPSAANSISSLTTLSIKDRFSNSMESLSSRRGPSCRQGRGIQKPQRQALYRGLENREEVVGKIRSLHTDALKKLAVKCEDLFMAGQKDQLRFGVDSWSDFRLTSDKPCCEAGDAVYYTASYAKDPLNNYAVKICKSKAKESQQYYHSLAVRQSLAVHFNIQQDCGHFLAEVPNRLLPWEDPDDPEKDEDDMEETEEDAKGETDGKNPKPCSEAASSQKENQGVMSKKQRSHVVVITREVPCLTVADFVRDSLAQHGKSPDLYERQVCLLLLQLCSGLEHLKPYHVTHCDLRLENLLLVHYQPGGTAQGFGPAEPSPTSSYPTRLIVSNFSQAKQKSHLVDPEILRDQSRLAPEIITATQYKKCDEFQTGILIYEMLHLPNPFDENPELKEREYTRADLPRIPFRSPYSRGLQQLASCLLNPNPSERILISDAKGILQCLLWGPREDLFQTFTACPSLVQRNTLLQNWLDIKRTLLMIKFAEKSLDREGGISLEDWLCAQYLAFATTDSLSCIVKILQHR
modifications: phosphotyrosine at Y1107 (by Src in vitro, shown by MS/MS); other Src sites not stated; biotin (EZ-Link NHS-PEG4-Biotin, 1:1 molar ratio); left off: His-tag, N-terminal, state not stated
notes: PEAK1 residues 1082–1746 phosphorylated with recombinant Src kinase
As for B4, the “SPR KD, 14-3-3ɣ” value in test [2] is on record as “No binding”. The Kd in test [3] stood at 1.5 µM; in test [4], 4.11 µM; in test [5], 1.49 µM.

For orientation: Kd means a measure of binding affinity in units of concentration.
